Reference: article PMC3143253
Like-named read-outs stand apart in the source and are kept apart here.

How the values were obtained:
[1] = molecular target: IAEDANS-labeled CaM-K75C (UniProt P0DP23); experiment: other fluorescence titration
[2] = molecular target: IAEDANS-labeled CaM-K75C (UniProt P0DP23); experiment: other fluorescence titration; remark: listed apart in the source
[3] = molecular target: calmodulin (UniProt P0DP23); experiment: ITC
[4] = molecular target: TMR-conjugated CLS-S329C, reconstituted in liposomes (human); experiment: other fluorescence titration

| Substance | Kd [1] [nM] | Kd [2] [nM] | Ka [3] [M⁻¹] | Kd [3] [nM] | dH [3] [kcal/mol] | stoichiometry N [3] | Kd [4] [nM] |
| --- | --- | --- | --- | --- | --- | --- | --- |
| ARR18 peptide (entire cytoplasmic domain of human L-selectin) | 2500 | 2100 | 204000 | 4900 | -0.77 | 0.92 | – |
| calmodulin (from UniProt P0DP23 1-149) (natural protein) | – | – | – | – | – | – | 1700 |
